Measurements published in article PMC4675558.

Target: T1, Cdc53(267-851)/GST-Rbx1 complex expressed in bacteria, Q08273
T1 chain: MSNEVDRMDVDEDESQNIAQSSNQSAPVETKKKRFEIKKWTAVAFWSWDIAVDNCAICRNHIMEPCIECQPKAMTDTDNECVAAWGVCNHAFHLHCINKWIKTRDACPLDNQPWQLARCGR
Test: in vitro binding assay (MBP pull-down on amylose beads, Western blot quantification)
Conditions: chain shown with the change, bacterial lysate expressing Cdc53(267-851)/Rbx1, normalized to Amido black signal of MBP tagged protein, read off a plot

B1: (MBP)-Met30(1-186), P39014 M178E; I179E (protein)
chain: MRRERQRMMSFEDKDKDDLDNSNSNNSSEMTDTAMMPPLKRLLITGSSDDLAQGSSGKKKMTMATRSPSSSPDLATNDSGTRVQPLPEYNFTKFCYRHNPDIQFSPTHTACYKQDLKRTQEINANIAKLPLQEQSDIHHIISKYSNSNDKIRKLILDGILSTSCFPQLSYISSLVTHEEKIDFISI
response (Cdc53/Amido Black) (Exp 1, parent: est. 3.1): 0.15
response (Cdc53/Amido Black) (Exp 2, parent: est. 7.3): 2.9
response (Cdc53/Amido Black) (Exp 3, parent: est. 4.6): 0.45
